In PMC3220268, “Phosphorylation of the Arp2 Subunit Relieves Auto-inhibitory Interactions for Arp2/3 Complex Activation” (PLoS Computational Biology, 2011):

Tests used:
[1] = target: recombinant Arp2/3 complex with Arp2 T237A, T238A, and Y202A mutations (UniProt P61158 1-418; P61160 1-394; O15143 1-372; O15144 1-300; O15145 1-178; P59998 …, T237A | T238A | Y202A); assay: pull-down; GST-NWASP VCA covalently coupled to Activated CH-sepharose 4B; beads added to Arp2/3 complex, room temperature, 30 min; beads spun at 700 x g, Coomassie-stained gels quantified and fitted; conditions: both partners purified
[2] = target: recombinant Arp2/3 complex with ARPC4 R105A and R106A mutations (UniProt P61158 1-418; P61160 1-394; O15143 1-372; O15144 1-300; O15145 1-178; P59998 …, R105A | R106A); assay: as above; conditions: both partners purified

Kd [1]: 500 nM | Kd [2]: 60 nM
B1: GST-NWASP VCA (domain or fragment)
chain: PSDGDHQVPTTAGNKAALLDQIREGAQLKKVEQNSRPVSCSGRDALLDQIRQGIQLKSVADGQESTPPTPAPTSGIVGALMEVMQKRSKAIHSSDEDEDEDDEEDFEDDDEWED
